Test results from US20030088057.

T1: AAAASKR
T1 chain: AAAASKR

T2: AAKKSAA
T2 chain: AAKKSAA

T3: AAKRSAA
T3 chain: AAKRSAA

T4: AARASAA
T4 chain: AARASAA

T5: AKAASAA
T5 chain: AKAASAA

T6: AKRASAA
T6 chain: AKRASAA

T7: AKRASEA
T7 chain: AKRASEA

T8: AKRASPA
T8 chain: AKRASPA

T9: AKRESAA
T9 chain: AKRESAA

T10: AKRKSAA
T10 chain: AKRKSAA

T11: AKRPSAA
T11 chain: AKRPSAA

T12: ARKASAA
T12 chain: ARKASAA

T13: ARRASAA
T13 chain: ARRASAA

T14: EKRASAA
T14 chain: EKRASAA

T15: KKAASAA
T15 chain: KKAASAA

T16: KKRASAA
T16 chain: KKRASAA

T17: KKRKSAA
T17 chain: KKRKSAA

T18: PKRASAA
T18 chain: PKRASAA

T19: RKKKSAA
T19 chain: RKKKSAA


Legend:
AAAASKR = molecular target: T1, AAAASKR
AAKKSAA = molecular target: T2, AAKKSAA
AAKRSAA = molecular target: T3, AAKRSAA
AARASAA = molecular target: T4, AARASAA
AKAASAA = molecular target: T5, AKAASAA
AKRASAA = molecular target: T6, AKRASAA
AKRASEA = molecular target: T7, AKRASEA
AKRASPA = molecular target: T8, AKRASPA
AKRESAA = molecular target: T9, AKRESAA
AKRKSAA = molecular target: T10, AKRKSAA
AKRPSAA = molecular target: T11, AKRPSAA
ARKASAA = molecular target: T12, ARKASAA
ARRASAA = molecular target: T13, ARRASAA
EKRASAA = molecular target: T14, EKRASAA
KKAASAA = molecular target: T15, KKAASAA
KKRASAA = molecular target: T16, KKRASAA
KKRKSAA = molecular target: T17, KKRKSAA
PKRASAA = molecular target: T18, PKRASAA
RKKKSAA = molecular target: T19, RKKKSAA

| Protein | rel rate (%), Cdc42-activated (KKRKSAA = 100) (AAAASKR) [%] | rel rate (%), Cdc42-activated (KKRKSAA = 100) (AAKKSAA) [%] | rel rate (%), Cdc42-activated (KKRKSAA = 100) (AAKRSAA) [%] | rel rate (%), Cdc42-activated (KKRKSAA = 100) (AARASAA) [%] | rel rate (%), Cdc42-activated (KKRKSAA = 100) (AKAASAA) [%] | rel rate (%), Cdc42-activated (KKRKSAA = 100) (AKRASAA) [%] | rel rate (%), Cdc42-activated (KKRKSAA = 100) (AKRASEA) [%] | rel rate (%), Cdc42-activated (KKRKSAA = 100) (AKRASPA) [%] | rel rate (%), Cdc42-activated (KKRKSAA = 100) (AKRESAA) [%] | rel rate (%), Cdc42-activated (KKRKSAA = 100) (AKRKSAA) [%] | rel rate (%), Cdc42-activated (KKRKSAA = 100) (AKRPSAA) [%] | rel rate (%), Cdc42-activated (KKRKSAA = 100) (ARKASAA) [%] | rel rate (%), Cdc42-activated (KKRKSAA = 100) (ARRASAA) [%] | rel rate (%), Cdc42-activated (KKRKSAA = 100) (EKRASAA) [%] | rel rate (%), Cdc42-activated (KKRKSAA = 100) (KKAASAA) [%] | rel rate (%), Cdc42-activated (KKRKSAA = 100) (KKRASAA) [%] | rel rate (%), Cdc42-activated (KKRKSAA = 100) (KKRKSAA) [%] | rel rate (%), Cdc42-activated (KKRKSAA = 100) (PKRASAA) [%] | rel rate (%), Cdc42-activated (KKRKSAA = 100) (RKKKSAA) [%] | activity relative to the activated forms (all peptides) |
| --- | --- | --- | --- | --- | --- | --- | --- | --- | --- | --- | --- | --- | --- | --- | --- | --- | --- | --- | --- | --- |
| γ-PAK activated by autophosphorylation in the presence of Cdc42(GTPγS) (protein) SDNGELEDKPPAPPVRMSSTIFSTGGKDPLSANHSLKPLPSVPEEKKPRNKIISIFSGTEKGSKKKEKERPEISPPSDFEHTIHVGFDAVTGEFTGMPEQWARLLQTSNITKLEQKKNPQAVLDVLKFYDSNTVKQKYLSFTPPEKDGFPSGAPALNTKVSETSAVVTEEDDDDEEAAPPVIAPRPDHTKSIYTRSVIDPIPAPVGDSHVDSGAKSSDKQKKKTKMTDEEIMEKLRTIVSIGDPKKKYTRYEKIGQGASGTVFTATDVALGQEVAIKQINLQKQPKKELIINEILVMKELKNPNIVNFLDSYLVGDELFVVMEYLAGGSLTDVVTETCMDEAQIAAVCRECLQALEFLHANQVIHRDIKSDNVLLGMEGSVKLTDFGFCAQITPEQSKRSTMVGTPYWMAPEVVTRKAYGPKVDIWSLGIMAIEMVEGEPPYLNENPLRALYLIATNGTPELQNPEKLSPIFRDFLNRCLEMDVEKRGSAKELLQHPFLKLAKPLSSLTPLIMAAKEAMKSNR | 0 | 0 | 0 | 56 | 3 | 189 | 88 | 3 | 295 | 158 | 11 | 9 | 134 | 151 | 3 | 181 | 100 | 184 | 3 | – |
| Inactive γ-PAK (protein) SDNGELEDKPPAPPVRMSSTIFSTGGKDPLSANHSLKPLPSVPEEKKPRNKIISIFSGTEKGSKKKEKERPEISPPSDFEHTIHVGFDAVTGEFTGMPEQWARLLQTSNITKLEQKKNPQAVLDVLKFYDSNTVKQKYLSFTPPEKDGFPSGAPALNTKVSETSAVVTEEDDDDEEAAPPVIAPRPDHTKSIYTRSVIDPIPAPVGDSHVDSGAKSSDKQKKKTKMTDEEIMEKLRTIVSIGDPKKKYTRYEKIGQGASGTVFTATDVALGQEVAIKQINLQKQPKKELIINEILVMKELKNPNIVNFLDSYLVGDELFVVMEYLAGGSLTDVVTETCMDEAQIAAVCRECLQALEFLHANQVIHRDIKSDNVLLGMEGSVKLTDFGFCAQITPEQSKRSTMVGTPYWMAPEVVTRKAYGPKVDIWSLGIMAIEMVEGEPPYLNENPLRALYLIATNGTPELQNPEKLSPIFRDFLNRCLEMDVEKRGSAKELLQHPFLKLAKPLSSLTPLIMAAKEAMKSNR | – | – | – | – | – | – | – | – | – | – | – | – | – | – | – | – | – | – | – | <5% of the activity of the activated forms with all peptides |
